Like-named read-outs stand apart in the source and are kept apart here. Each block holds one binder with its values, some of them ahead of it.
Legend:
4H881-AA = biological target: T1, 4H881-AA; test: two-hybrid library CCmax;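 also: natural log of median RNA to DNA barcode read ratio; higher means stronger binding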
T1 chain: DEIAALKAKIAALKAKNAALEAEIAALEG

4H906-AA = biological target: T2, 4H906-AA; test: two-hybrid library CCmax; conditions: mean of both orientations;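 also: natural log of median RNA to DNA barcode read ratio; higher means stronger binding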
T2 chain: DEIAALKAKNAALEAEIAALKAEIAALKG

4H993-AA = biological target: T3, 4H993-AA; test: two-hybrid library CCmax; conditions: mean of both orientations;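 also: natural log of median RNA to DNA barcode read ratio; higher means stronger binding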
T3 chain: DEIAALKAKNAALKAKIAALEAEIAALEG

4H794-AA = biological target: T4, 4H794-AA; test: two-hybrid library CCmax;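 also: natural log of median RNA to DNA barcode read ratio; higher means stronger binding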
T4 chain: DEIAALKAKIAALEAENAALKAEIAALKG

4H850-AA = biological target: T5, 4H850-AA; test: two-hybrid library CCmax;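 also: natural log of median RNA to DNA barcode read ratio; higher means stronger binding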
T5 chain: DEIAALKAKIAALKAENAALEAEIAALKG

4H891-AA = biological target: T6, 4H891-AA; test: two-hybrid library CCmax; conditions: mean of both orientations;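 also: natural log of median RNA to DNA barcode read ratio; higher means stronger binding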
T6 chain: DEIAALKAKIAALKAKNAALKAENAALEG

4H909-AA = biological target: T7, 4H909-AA; test: two-hybrid library CCmax
T7 chain: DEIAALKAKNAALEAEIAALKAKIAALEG

4H930-AA = biological target: T8, 4H930-AA; test: two-hybrid library CCmax
T8 chain: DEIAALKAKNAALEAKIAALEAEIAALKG

4H94-AA = biological target: T9, 4H94-AA; test: two-hybrid library CCmax
T9 chain: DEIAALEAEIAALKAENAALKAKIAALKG

4H967-bN = biological target: T10, 4H967-bN; test: two-hybrid library CCNG1
T10 chain: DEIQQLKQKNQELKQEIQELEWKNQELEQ

4H566-AA = biological target: T11, 4H566-AA; test: two-hybrid library CCmax
T11 chain: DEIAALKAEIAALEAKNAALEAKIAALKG

4H605-AA = biological target: T12, 4H605-AA; test: two-hybrid library CCmax
T12 chain: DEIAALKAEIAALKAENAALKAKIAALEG

4H678-AA = biological target: T13, 4H678-AA; test: two-hybrid library CCmax
T13 chain: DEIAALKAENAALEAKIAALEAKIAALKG

4H717-AA = biological target: T14, 4H717-AA; test: two-hybrid library CCmax; conditions: mean of both orientations
T14 chain: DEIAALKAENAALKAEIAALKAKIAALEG

4H780-AA = biological target: T15, 4H780-AA; test: two-hybrid library CCmax; conditions: mean of both orientations
T15 chain: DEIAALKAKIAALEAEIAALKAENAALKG

4H906-bA = biological target: T16, 4H906-bA; test: two-hybrid library CCNG1
T16 chain: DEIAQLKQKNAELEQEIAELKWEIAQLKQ

4H918-bN = biological target: T17, 4H918-bN; test: two-hybrid library CCNG1
T17 chain: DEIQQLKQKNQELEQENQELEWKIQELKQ

4H458-AA = biological target: T18, 4H458-AA; test: two-hybrid library CCmax
T18 chain: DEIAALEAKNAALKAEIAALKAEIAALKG

4H485-AA = biological target: T19, 4H485-AA; test: two-hybrid library CCmax; conditions: mean of both orientations
T19 chain: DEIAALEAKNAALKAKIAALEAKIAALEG

4H536-AA = biological target: T20, 4H536-AA; test: two-hybrid library CCmax; conditions: mean of both orientations
T20 chain: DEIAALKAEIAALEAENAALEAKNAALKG

4H570-AA = biological target: T21, 4H570-AA; test: two-hybrid library CCmax; conditions: mean of both orientations
T21 chain: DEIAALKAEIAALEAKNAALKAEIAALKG

4H629-AA = biological target: T22, 4H629-AA; test: two-hybrid library CCmax
T22 chain: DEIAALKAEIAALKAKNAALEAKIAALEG

4H710-AA = biological target: T23, 4H710-AA; test: two-hybrid library CCmax; conditions: mean of both orientations
T23 chain: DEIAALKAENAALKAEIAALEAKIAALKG

4H745-AA = biological target: T24, 4H745-AA; test: two-hybrid library CCmax; conditions: mean of both orientations
T24 chain: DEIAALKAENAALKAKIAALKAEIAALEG

4H797-AA = biological target: T25, 4H797-AA; test: two-hybrid library CCmax; conditions: mean of both orientations
T25 chain: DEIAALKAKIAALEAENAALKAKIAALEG

- interaction score (4H881-AA): -0.685
- interaction score (4H906-AA): -1.49
- interaction score (4H993-AA): 1.82
Binder: DEIAALKAKIAALKAKNAALEAEIAALEG [4H881-AA]

- interaction score (4H794-AA): 1.84
- interaction score (4H881-AA; mean of both orientations): -0.532
- interaction score (4H906-AA): -1.42
- interaction score (4H993-AA): -1.99
Binder: DEIAALKAKIAALEAENAALKAEIAALKG [4H794-AA]

- interaction score (4H850-AA): 1.89
- interaction score (4H891-AA): -0.0612
- interaction score (4H909-AA; mean of both orientations): -1.47
- interaction score (4H930-AA; mean of both orientations): -1.9
- interaction score (4H94-AA; mean of both orientations): 1.79
Binder: DEIAALKAKIAALKAENAALEAEIAALKG [4H850-AA]

- interaction score (4H967-bN): -0.749
Binder: DEIQQLKQKNQELKQEIQELEWKNQELEQ [4H967-bN]

- interaction score (4H94-AA): 2.24
Binder: DEIAALEAEIAALKAENAALKAKIAALKG [4H94-AA]

- interaction score (4H566-AA): 2.14
- interaction score (4H605-AA; mean of both orientations): -0.184
- interaction score (4H678-AA; mean of both orientations): -0.948
- interaction score (4H717-AA): -0.483
- interaction score (4H780-AA): -2
- interaction score (4H794-AA; mean of both orientations): -0.409
- interaction score (4H881-AA; mean of both orientations): 1.95
- interaction score (4H906-AA): -1.33
- interaction score (4H993-AA): 1.6
Binder: DEIAALKAEIAALEAKNAALEAKIAALKG [4H566-AA]

- interaction score (4H605-AA): 1.29
- interaction score (4H678-AA; mean of both orientations): -0.274
- interaction score (4H717-AA): -1.23
- interaction score (4H780-AA): -1.53
- interaction score (4H794-AA; mean of both orientations): -0.923
- interaction score (4H881-AA; mean of both orientations): -0.443
- interaction score (4H906-AA): -1.14
- interaction score (4H993-AA): -1.15
Binder: DEIAALKAEIAALKAENAALKAKIAALEG [4H605-AA]

- interaction score (4H906-bA): 0.95
- interaction score (4H918-bN): -0.333
Binder: DEIAQLKQKNAELEQEIAELKWEIAQLKQ [4H906-bA]

- interaction score (4H678-AA): 1.57
- interaction score (4H717-AA): -0.0211
- interaction score (4H780-AA): -1.59
- interaction score (4H794-AA; mean of both orientations): -1.91
- interaction score (4H881-AA; mean of both orientations): 1.21
- interaction score (4H906-AA): -0.716
- interaction score (4H993-AA): 1.05
Binder: DEIAALKAENAALEAKIAALEAKIAALKG [4H678-AA]

- interaction score (4H909-AA): 2.08
- interaction score (4H930-AA; mean of both orientations): -1.17
- interaction score (4H94-AA; mean of both orientations): -0.983
Binder: DEIAALKAKNAALEAEIAALKAKIAALEG [4H909-AA]

- interaction score (4H930-AA): 1.74
- interaction score (4H94-AA; mean of both orientations): -1.34
Binder: DEIAALKAKNAALEAKIAALEAEIAALKG [4H930-AA]

- interaction score (4H458-AA): 1.87
- interaction score (4H485-AA): -1.76
- interaction score (4H536-AA): -1.46
- interaction score (4H570-AA): -0.947
- interaction score (4H629-AA): -1.64
- interaction score (4H710-AA): 1.06
- interaction score (4H745-AA): 1.1
- interaction score (4H797-AA): -1.44
- interaction score (4H850-AA; mean of both orientations): 1.08
- interaction score (4H891-AA): -1.67
- interaction score (4H909-AA; mean of both orientations): -0.173
- interaction score (4H930-AA; mean of both orientations): -0.663
- interaction score (4H94-AA; mean of both orientations): -1.35
Binder: DEIAALEAKNAALKAEIAALKAEIAALKG [4H458-AA]

From PMC10397247
